Laboratory results from paper PMC6260798 (Biochemistry, 2018).
Where two headings read alike, the source gives them in different places.

Assays:
UreE [1] = target: T1, UreE (Helicobacter pylori, UniProt Q09064); test: ITC
T1 chain: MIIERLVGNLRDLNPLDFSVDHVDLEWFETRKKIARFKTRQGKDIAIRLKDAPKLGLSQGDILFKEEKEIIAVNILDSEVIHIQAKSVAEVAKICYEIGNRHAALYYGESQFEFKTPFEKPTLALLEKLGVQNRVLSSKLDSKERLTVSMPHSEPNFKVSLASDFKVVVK

UreE [2] = target: T1, UreE; test: fluorescence titration
[3] = target: T2, Helicobacter pylori UreE homodimer (UreE2) (Helicobacter pylori, UniProt Q09064 1-170); test: SEC-MALS
T2 sequence: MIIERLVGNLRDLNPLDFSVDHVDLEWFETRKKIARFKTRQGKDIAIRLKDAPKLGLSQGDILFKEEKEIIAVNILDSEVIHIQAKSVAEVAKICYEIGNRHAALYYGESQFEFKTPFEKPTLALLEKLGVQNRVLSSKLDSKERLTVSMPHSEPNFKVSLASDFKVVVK

[4] = target: T2, Helicobacter pylori UreE homodimer …; test: ITC
[5] = target: T2, Helicobacter pylori UreE homodimer …; test: ITC; remark: listed apart in the source

B1: HypA (protein)
chain: MHEYSVVSSLIALCEEHAKKNQAHKIERVVVGIGERSAMDKSLFVSAFETFREESLVCKDAILDIVDEKVELECKDCSHVFKPNALDYGVCEKCHSKNVIITQGNEMRLLSLEMLAE
modifications: Ni,Zn-HypA
UreE [1]
  Kd: ~0.6 nM

B2: HypA (protein)
chain: MHEYSVVSSLIALCEEHAKKNQAHKIERVVVGIGERSAMDKSLFVSAFETFREESLVCKDAILDIVDEKVELECKDCSHVFKPNALDYGVCEKCHSKNVIITQGNEMRLLSLEMLAE
modifications: apo,Zn-HypA, NHS640-labelled UreE2
UreE [2]
  Kd: ~2000 nM

B3: Helicobacter pylori HypA (wild type; apo,Zn-HypA or Ni,Zn-HypA) (natural protein, UniProt P0A0U4 1-117, looked up)
chain: MHEYSVVSSLIALCEEHAKKNQAHKIERVVVGIGERSAMDKSLFVSAFETFREESLVCKDAILDIVDEKVELECKDCSHVFKPNALDYGVCEKCHSKNVIITQGNEMRLLSLEMLAE
[3]
  stoichiometry N: 1 HypA per UreE2
[4]
  Kd: 1200 nM
  stoichiometry N: 1.4 Sites
[5]
  Kd: 900 nM
  stoichiometry N: 1.4 Sites
